Results from patent US20230063420A1.

Tests used:
[1] = target: cyno glucagon receptor (cyno); test: cell-based or functional assay
[2] = target: GLP-1 receptor (Example 19, species not stated); test: cell-based or functional assay

cGCGR pEC50, cAMP accumulation [1]: < 9 -log M
pEC50, cAMP accumulation, 0% HSA [2]: 11.6 -log M
pEC50, cAMP accumulation, 0.1% HSA [2]: 10.3 -log M
pEC50, cAMP accumulation, 4% HSA [2]: 9.24 -log M
Substance: semaglutide (peptide)
